The text below walks through data of the supplement of paper PMC10567573.

± gives the standard deviation.

The data set in a line: protein stability index of a GFP-peptide fusion (GPS, HEK-293T) (PSI 1-6); higher = more stable. To be noted: c terminus: a fixed tail appended.
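Note: 24-mer peptide tiles fused after GFP, lentivirally expressed, FACS-sorted into six equal bins by GFP/DsRed ratio, decoded by Illumina sequencing, PSI is the read-weighted mean bin number.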

TKGEKIMLAIITKMTLTQVSTWFA [IRX6]: the protein stability index (treatment: DMSO) stood at 2.97 ± 0.5 and the protein stability index (treatment: MLN4924 1 uM, 8 h) turned out to be 2.95 ± 0.68.
Regarding LVRTLYKVQNECPGITRVYSIGRS [CPN1], the protein stability index (treatment: DMSO) amounted to 2.27 ± 0.55 and the protein stability index (treatment: MLN4924 1 uM, 8 h) stood at 2.11 ± 0.14.
As for FSEQVFKVASSDLVNMGISVVSYT [FLOT1], the protein stability index by setting is: (treatment: DMSO) 2.66 ± 0.72; (treatment: MLN4924 1 uM, 8 h) 2.39 ± 0.44.
Regarding AVPPTSSVPPVAGAPSVGQPGAGF [SNAP91], the protein stability index reads like this: (treatment: DMSO) 4.53 ± 0.23; (treatment: MLN4924 1 uM, 8 h) 4.42 ± 0.086.
Turning to RKPDYTAYVAMIPQCIKEEDTPSD [ATF4], the protein stability index (treatment: DMSO) was determined as 4.47 ± 0.25 and the protein stability index (treatment: MLN4924 1 uM, 8 h) was 4.62 ± 0.21.
Taken in the same sequence, the figures for VGYTALVGSDAESWGWDLGRSRLY [SPSB4] were 2.21 ± 0.076 and 2.56 ± 0.48.
Regarding KAETKTKKAAESLRRSVEKYNSAR [FCHO1], the protein stability index turned out to be 4.64 ± 0.22 (treatment: DMSO) and 4.72 ± 0.075 (treatment: MLN4924 1 uM, 8 h).
Taken in the same sequence, the figures for FAVFPSLNEEQTLQEVPTGLDSIS [ETS2] were 3.81 ± 0.32 and 3.79 ± 0.39.
With TDNGTFNLSRGQTPLTEGSEDLDG [RETREG3], the protein stability index was determined as 5.25 ± 0.26 (treatment: DMSO) and 5.45 ± 0.25 (treatment: MLN4924 1 uM, 8 h).
With SYSIQKVIGFAKMIPGFRDLTSED [VDR], the protein stability index (treatment: DMSO) came to 2.52 ± 0.29 and the protein stability index (treatment: MLN4924 1 uM, 8 h) amounted to 2.88 ± 0.12.
Taken in the same sequence, the figures for RRTAENKLDTKYPYVCHAELNAIM [DCTD] were 2.29 ± 0.15 and 2.37 ± 0.49.
Taken in the same sequence, the figures for RLEELTNRLASLQQENKVLKIELE [CCDC6] were 3.65 ± 0.23 and 3.78 ± 0.38.
The corresponding values for PVVSAVWGHCEIRMRYLNGLDPEP [SPSB1] are 2.14 ± 0.35 and 1.98 ± 0.33.
Turning to AEMAEDYPRYPDIHDLDLTLLNPR [CLCN6], the protein stability index reads like this: (treatment: DMSO) 4.05 ± 0.28; (treatment: MLN4924 1 uM, 8 h) 4.21 ± 0.25.
As to INVGGIKYSLPWTTLDEFPLTRLG [KCNG1], the protein stability index came to 2.17 ± 0.6 (treatment: DMSO) and 2.06 ± 0.13 (treatment: MLN4924 1 uM, 8 h).
Taken in the same sequence, the figures for AATQALPQDSGTAAWKGRVLLPET [C22orf31] were 4.11 ± 0.062 and 4.1 ± 0.24.
For AIPEAIGFVMVPFEYRGEQHKTCM [EDNRA], the protein stability index amounted to 2.36 ± 0.32 (treatment: DMSO) and 2.31 ± 0.27 (treatment: MLN4924 1 uM, 8 h).
With MPVQLTSRREIRKIMGVEEEDDDD [ANKRD40], the protein stability index was determined as 5.62 ± 0.19 (treatment: DMSO) and 5.57 ± 0.13 (treatment: MLN4924 1 uM, 8 h).
Sequence MARNPAAIDMFIIGATFTDWFTSY [FBXO3] displayed a protein stability index (treatment: DMSO) of 3.1 ± 0.62 and a protein stability index (treatment: MLN4924 1 uM, 8 h) of 2.84 ± 0.57.
For the sequence GLDPCLLEDELDKSVQGTGLAFIA [SLC6A17], the protein stability index reads like this: (treatment: DMSO) 3.28 ± 0.31; (treatment: MLN4924 1 uM, 8 h) 3.28 ± 0.44.
On to YQDKIRPYIQLPSHSNITGIVEVI [TRIB1], for which the protein stability index reads like this: (treatment: DMSO) 2.39 ± 0.3; (treatment: MLN4924 1 uM, 8 h) 2.17 ± 0.094.
For the sequence MKQRIAEENIMKSNIDKKFSAHYD [FAM50A], the protein stability index runs as follows: (treatment: DMSO) 3.85 ± 0.2; (treatment: MLN4924 1 uM, 8 h) 3.97 ± 0.14.
In turn, IPPPLSSVYAWGGGLGTPLRLPML [NEK8] gave a protein stability index (treatment: DMSO) of 2.32 ± 0.087 and a protein stability index (treatment: MLN4924 1 uM, 8 h) of 2.32 ± 0.034.
In turn, MGRKRLITDSYPVVKRREGPAGHS [POLD4] displayed a protein stability index (treatment: DMSO) of 3.33 ± 0.32 and a protein stability index (treatment: MLN4924 1 uM, 8 h) of 3.2 ± 0.29.
Consider ESQVKSLCEKAKEILTKESNVQEV [PPP2CA], for which the protein stability index was determined as 5.45 ± 0.11 (treatment: DMSO) and 5.18 ± 0.18 (treatment: MLN4924 1 uM, 8 h).
Take EKMALDPYTELRKQPLRKYVTPSD [EFHC1]: the protein stability index runs as follows: (treatment: DMSO) 4.03 ± 0.29; (treatment: MLN4924 1 uM, 8 h) 3.95 ± 0.064.
Take RLRQLKVRNDSCVVHEDFREDILS [PKD2L1]: the protein stability index by setting is: (treatment: DMSO) 3.47 ± 0.43; (treatment: MLN4924 1 uM, 8 h) 3.65 ± 0.43.
The corresponding values for FKLLAGRWPFDHNDFGVFLCKLFP [EDNRA] are 2.34 ± 0.37 and 2.5 ± 0.38.
In the case of TSGKLLLEADELCDDGGDGRGAVV [ZBTB22], the protein stability index is, setting by setting: (treatment: DMSO) 5.36 ± 0.29; (treatment: MLN4924 1 uM, 8 h) 5.31 ± 0.1.
Consider IQFATPNDFCSFYNILKTCRGHTL [CARM1], for which the protein stability index stood at 2.47 ± 0.41 (treatment: DMSO) and 2.24 ± 0.22 (treatment: MLN4924 1 uM, 8 h).
Regarding RSCGGGVTSQERHCLQQRRKSVPG [ADAMTSL2], the protein stability index (treatment: DMSO) is 4.58 ± 0.25.
AECALVSLKEAEFYDKQLKVLLSG [ZFYVE21] registered a protein stability index (treatment: DMSO) of 2.86 ± 0.24 and a protein stability index (treatment: MLN4924 1 uM, 8 h) of 3.05 ± 0.48.
Taken in the same sequence, the figures for KKAFVWARNIGFKVNSKKMLGKYN [ACSBG2] were 2.5 ± 0.46 and 2.35 ± 0.38.
On to GSKGEKDLGASSLHVNGESLEMDS [EHMT1], for which the protein stability index (treatment: DMSO) stood at 5.28 ± 0.26 and the protein stability index (treatment: MLN4924 1 uM, 8 h) was determined as 5.39 ± 0.27.
Taken in the same sequence, the figures for VHLVIWLLLVAKMSVGHLRLLSHD [JAGN1] were 3.39 ± 0.5 and 3.36 ± 0.63.
As to SSWDIDGRATKRRKKSGDLKKAKV [FBXO34], the protein stability index is, setting by setting: (treatment: DMSO) 4.8 ± 0.29; (treatment: MLN4924 1 uM, 8 h) 4.79 ± 0.11.
In the case of IRPDPRSRVTDPVGDIVSFMHSFE [FAF2], the protein stability index is, setting by setting: (treatment: DMSO) 3.06 ± 0.42; (treatment: MLN4924 1 uM, 8 h) 3.09 ± 0.33.
